{
  "source": "paper PMC12445078",
  "about": "“Structure-guided engineering of an aromatic ring-hydroxylating dioxygenase for broad-spectrum phthalate degradation” (Journal of Bacteriology, 2025)",
  "molecules": {"B1": {"name": "IPDOKF1 (isophthalate dioxygenase, IPDO) (Comamonas testosteroni KF-1) (protein)", "chain": "MNKEMSETLTRVGPNTRMGNLLRRYWVPALMSSEIAEADGPQVRVQLLGEKLLAFRNTDGKACLISEFCSHRGVSLYFGRNEENGIRCAYHGVKFDGDGQCVDVPSSPQSCARMHIKGYPCVERGGIVWTYMGPEEHKPSPPELEWCTLPPEHVFVSKRLQYSNWLQAMEGGIDTAHVSYVHRFEVDTDPMHQGVKALDYIKADGNVKFEIEQTPFGLSLFGRRNGEPDSYYWRITQWLFPWFTLIAPFGNHALGGHVWVPIDDHNCWAWSINWQPDQPLTKEERQSMEEGKGIHVEYEEPGSFIPKANRNNDYGMDRVAQREERSYSGIFGFSAQDYSLQESMGPIQDHAAERLLPTDKAIVMARRMLNEAALGLEQGETPPALDASEQHVRPAGVLLPRDQDPVAWAREELADATKKPVFSL"}, "B2": {"name": "IPDOKF1 (isophthalate dioxygenase, IPDO) (Comamonas testosteroni KF-1; F249H/V178A) (protein)", "chain": "B1 chain with V178A, F249H", "notes": "424 residues per protomer; ~50 kDa monomer, ~150 kDa trimer; primers encode N-terminus MNKEMSE and C-terminus PVFSL; Rieske [2Fe-2S]; C69/H71/C88/H91, Fe H177/H182/D337; assayed with separate reductase IPDRKF1"}},
  "key": {"[1]": {"target": "T1, IPDOKF1 (isophthalate dioxygenase, IPDO) (Comamonas testosteroni, UniProt B7WRK8)", "T1 construct": "gene CtesDRAFT_PD2139; 424 residues per protomer; ~50 kDa monomer, ~150 kDa trimer; primers encode N-terminus MNKEMSE and C-terminus PVFSL; Rieske [2Fe-2S]; C69/H71/C88/H91, Fe H177/H182/D337; assayed with separate reductase IPDRKF1", "T1 sequence (B7WRK8 1-424)": "B1 chain", "assay": "X-ray co-crystal structure, […] Å", "assay_type": "binding", "details": "co-crystallized with 5 mM isophthalate, 0.1 M Tris-HCl pH 7.0; active site near mononuclear iron"}, "[2]": {"target": "isophthalate dioxygenase from Comamonas testosteroni KF1 (IPDOKF1) (Comamonas testosteroni KF1)", "assay": "SEC; gel filtration on a Superdex 200 column; peaks at 62 mL (trimer, ~150 kDa) and 73 mL (monomer, ~50 kDa)"}, "[3]": {"target": "isophthalate dioxygenase from Comamonas testosteroni KF1 (IPDOKF1) (Comamonas testosteroni KF1)", "assay": "crystal structure; apo IPDOKF1 at 2.96 Å and isophthalate complex at 3.3 Å, space group P 2_(1) 3, one monomer per asymmetric unit; the trimer arises by the threefold axis"}, "[4]": {"substrate": "O=C(O)c1cccc(C(=O)O)c1", "assay": "purified protein", "details": "with reductase IPDRKF1, 1 mM NAD(P)H, 100 µM Fe(NH4)2(SO4)2, air-saturated 50 mM Tris, 25 °C, pH 7.5 in table footnote but pH 8.0 in methods"}, "[5]": {"substrate": "O=C(O)c1ccc(C(=O)O)cc1", "assay": "O2 consumption, Clark-type oxygen electrode", "assay_type": "biochemical, Comamonas testosteroni", "details": "with reductase IPDRKF1, 1 mM NAD(P)H, 100 µM Fe(NH4)2(SO4)2, air-saturated 50 mM Tris, 25 °C, pH 7.5 in table footnote but pH 8.0 in methods"}, "[6]": {"substrate": "O=C(O)c1ccccc1C(=O)O", "assay": "O2 consumption, Clark-type oxygen electrode", "assay_type": "biochemical, Comamonas testosteroni", "details": "with reductase IPDRKF1, 1 mM NAD(P)H, 100 µM Fe(NH4)2(SO4)2, air-saturated 50 mM Tris, 25 °C, pH 7.5 in table footnote but pH 8.0 in methods"}},
  "note": "Positions count from the first letter of the chain named. Names and notes keep the numbering of the source.",
  "data": [
    {"molecule": "O=C(O)c1cccc(C(=O)O)c1", "note": "[IPA, isophthalate]", "values": [
      {"measurement": "X-ray co-crystal structure, 3.3 Å", "setting": "[1]", "result": "co-crystallized IPDOKF1 with its substrate and determined the structure of the isophthalate-bound complex"}
    ]},
    {"molecule": "isophthalate dioxygenase from Comamonas testosteroni KF1 (IPDOKF1) (enzyme)", "values": [
      {"measurement": "stoichiometry N", "setting": "[2]", "result": 3},
      {"measurement": "stoichiometry N", "setting": "[3]", "result": 3}
    ]},
    {"molecule": "B1", "values": [
      {"measurement": "Km", "setting": "[4]", "result": "31 ± 7", "unit": "µM"},
      {"measurement": "kcat", "setting": "[4]", "result": 4.9, "unit": "s⁻¹"},
      {"measurement": "kcat/Km", "setting": "[4]", "result": 160000, "unit": "M⁻¹ s⁻¹"}
    ]},
    {"molecule": "B2", "values": [
      {"measurement": "Km", "setting": "[4]", "result": "32 ± 8", "unit": "µM"},
      {"measurement": "kcat", "setting": "[4]", "result": 4.8, "unit": "s⁻¹"},
      {"measurement": "kcat/Km", "setting": "[4]", "result": 148000, "unit": "M⁻¹ s⁻¹"},
      {"measurement": "Km", "setting": "[5]", "result": "95 ± 11", "unit": "µM"},
      {"measurement": "kcat", "setting": "[5]", "result": "4.9 ± 0.2", "unit": "s⁻¹"},
      {"measurement": "kcat/Km", "setting": "[5]", "result": "51000 ± 6000", "unit": "M⁻¹ s⁻¹"},
      {"measurement": "Km", "setting": "[6]", "result": "91 ± 16", "unit": "µM"},
      {"measurement": "kcat", "setting": "[6]", "result": "4 ± 0.2", "unit": "s⁻¹"},
      {"measurement": "kcat/Km", "setting": "[6]", "result": "44000 ± 8000", "unit": "M⁻¹ s⁻¹"}
    ]}
  ]
}
